In doi:10.1101/2022.06.29.498065v2 one finds Km data, which are given here for one substance.

In this series the test system is Nc1ncnc2c1ncn2[C@@H]1O[C@H](COP(=O)(O)OP(=O)(O)OP(=O)(O)O)[C@@H](O)[C@H]1O. The series is described as follows: purified protein. Particulars: pH 7.0; 30.0 °C.

What is called Km is the substrate concentration at which the rate is half of its maximum. For the substance “KFDV NS5 (Kyasanur Forest disease virus)”, the Km was 42.15 ± 5.81 µM.
